According to patent US20070265350:

Tests used:
[1] = target: His-Cdc42 (UniProt P60953)
[2] = test system: Histidine-tagged Rac1

Sequence of His-Cdc42 (P60953 whole entry, looked up): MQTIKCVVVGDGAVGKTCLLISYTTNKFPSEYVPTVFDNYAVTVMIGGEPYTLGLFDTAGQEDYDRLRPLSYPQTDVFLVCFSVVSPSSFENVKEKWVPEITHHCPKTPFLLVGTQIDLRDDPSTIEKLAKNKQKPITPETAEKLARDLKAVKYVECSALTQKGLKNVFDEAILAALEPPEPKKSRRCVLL
Sequence of Bovine copper/zinc superoxide dismutase (SOD1), native (chain, as listed by the source): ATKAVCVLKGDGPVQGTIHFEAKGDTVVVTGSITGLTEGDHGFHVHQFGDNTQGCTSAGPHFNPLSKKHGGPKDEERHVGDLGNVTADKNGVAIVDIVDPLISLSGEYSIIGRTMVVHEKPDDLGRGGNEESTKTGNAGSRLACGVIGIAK
Sequence of Demetalated bovine SOD1 (chain, as listed by the source): as above

| Substance | Cdc42 GTPase assay (rate of 32Pi release from γP32-GTP) [1] | Rac1 GTPase assay (rate of 32Pi release from γP32-GTP) [2] |
| --- | --- | --- |
| Bovine copper/zinc superoxide dismutase (SOD1), native | The ability of SOD1 to inhibit GTP hydrolysis was also specific for Rac1 and was not observed with the closely related small GTPase Cdc42 |  |
| Demetalated bovine SOD1 |  | also did not inhibit Rac1 GTPase activity (FIG. 6B) |
